Results as given in article doi:10.1101/373563 (bioRxiv, 2018).
Blank lines part the entries; values can stand above or below the molecule they belong to.

Columns and labels:
[1] = target: Facklamia ignava NrdB∆Grx (lacking the Grx domain) (Facklamia ignava); assay: GEMMA
GEMMA = target: the molecule itself; assay: GEMMA
SEC [2] = target: the molecule itself; assay: SEC
SEC [3] = target: the molecule itself; assay: SEC; remark: listed apart in the source

stoichiometry N [1]: 4
Molecule: Facklamia ignava NrdB∆Grx (lacking the Grx domain) (domain or fragment)

B1: Facklamia ignava NrdB (Grx::ATP-cone::NrdB fusion protein), wild type (natural protein, UniProt K1LAT4 1-496, looked up)
chain: MTQVQVYSKKVCPWCTRLKDWMDKNNIDYEEIDIEVHPEAREYLHSLGLKTVPQVFIDGVHRPHEPLYSNLLHYIHGTSKIPQHVTKRNGDRVDFDPTKIEIAIQKANNETHELNDMEINTVTQKVVEKIDIDPIHVEEIQDLVETELMLQSFPRTAKAYILYRAEQTKARQRDIFKPRKNLKPYEYPELESYKEAIQHSYWLHTEYNYTSDIQDYKINVEPHERTAIRNAMLAISQVEVSVKTFWAKLYDRLPKPELANVGMTFAESEVRHSDAYSHLLELLGLNEIFEEIEQIPALNQRVDYLNSHIKYSQTGSNRDYTISILLFSAFIEHISLFSQFLIIMAFNKQKNLFSGISNVIEATSKEEQLHGEFGIDLINTIKAENPDWFDDELKEEIYTLVKQAYESEKDVLDWIYEDGEIDFMPTQTVLEFIKNRLNNSLEAIGLERIFETDLAEVEKTLWFDEEIVSTKHVDFFAKRSVNYTKRSQSMTADDLF
stoichiometry N (GEMMA): 2
stoichiometry N (SEC [2]): 4

B2: Facklamia ignava NrdA (natural protein, UniProt K1MC37 1-567, looked up)
chain: MTAQLKNREYEPFYWLTEDSQTFLERGYLREGQDAHSRLREIADRAEEILGIDGFSDKFYTYLGRGYYSLSTPVWTNFGSNRGFPISCFGSTPDDNMASILYTAAEIGMMSKYGGGTSGFFGHLRPRGAAITNNGYSSGAVHFMKLFEQMTDTVSQGSSRRGRFAPYLPIDHPDIDEFLEIGVEGNDIQDLNHAVTVPDDWMREMIQGDREKRATWAKVIQRRVEMGYPYILFTDTINNNKPEWYHDYPITHSNLCSEIMLPDNDHWSFVCNLSSMNVLHYNEWKDTDAVETMIYFLDAVMSEFIEKLEKLRDSDQFEYREAFHFMERAYNFAVENRALGLGVLGWHSLLQSNLIAFESEEASYLNEEIHRTIQERAEKASCELAELFGEPLILKGTGRRNTTTMAIAPTTSSAFIIGQVSQSIEPLFSNYYVKDMSKIKTTIRNRYLVELLEEKGRNTPDVWESIKNHDGSVLHLDFLSDHEKNVFKTFAEINQYEIINQAAVRQRYIDQSQSLNIMINPATTTAKEMNQLYLYAWESGIKSLYYQHSTSAAQAFYRSSVCLACEA
stoichiometry N (SEC [3]): 2
